The values below come from PMC2836971.

The experiment has as its target Myc-tagged Emi2-C RL^+ mutant (only the RL motif intact; D-box and ZBR mutated) (Xenopus) (UniProt Q8AXF4). Nature of the experiment: co-IP.

For “Cdc27 (APC/C core subunit), endogenous in Xenopus CSF extracts (natural protein)”, the percent less strongly associated with Cdc27 than the WT was 50%.
